According to the Immune Epitope Database (IEDB):

Biological target: HLA-A*68:02
Experiment: IEDB peptide-MHC binding, cellular MHC/competitive/fluorescence; ≥ and ≤ were set here for values at or beyond the usual limits of such assays
Conditions: source organism: Vaccinia virus WR

Sequence | IC50 [µM]
IAGIILLIL | 8.8
IISTDQDTM | 6.69
KISVEKIKQT | 11.2
LISILMIFI | 10.5
NIVTDLENRL | 13.2
NQLDSSNKSM | 52.7
PIPMSRLFM | ≥ 70
TQSGALEVLM | 12.3
VLTSVDIET | 37.5
VMDTLNGIMM | 6.92
VQLSNNKYVL | ≥ 70
VQTLISLNSM | 50.9
VVYHDDDNTT | 27.8
YVHSLLYSSM | 7.25

Biological target: HLA-A*02:01
Experiment: as above
Conditions: source organism: Influenza A virus

Sequence | IC50 [µM]
CAAMDDFQL | 10.9
FNPMIVELA | 25.2
FVETLARSI | 5.26
GILHLILWIL | 16.7
TVSSFQDIL | 40.7

Same assay, conditions: source organism: Mammarenavirus brazilense

Sequence | IC50 [µM]
LNISGYNYSL | 10.6
RSASGGVYL | 32.5

Same assay, conditions: source organism: Mammarenavirus choriomeningitidis

Sequence | IC50 [µM]
LSYSQTMLL | 8.28
SCDDVVFGI | 5.61

Same assay, conditions: source organism: Mammarenavirus guanaritoense

Sequence | IC50 [µM]
LCFWSAIFFT | 5.57
MNNVVQALT | 7.48

Same assay, conditions: source organism: Mammarenavirus machupoense

Sequence | IC50 [µM]
SSWAVHWFS | 8.01

Same assay, conditions: source organism: Vaccinia virus WR

Sequence | IC50 [µM]
CTSEIQNVT | 13.5
DAEFVMCLEA | 9.14
DIYDAVRAFL | 5.42
DTCLLAISA | 6.69
DTSNNIAEYI | 6.29
EIARIENEM | ≥ 70
ELPYVGDTSM | 13.4
GARVIWMDA | 7.73
IASKINNNRI | 30.8
IISTDQDTM | 5.87
NIVTDLENRL | 19.6
NLEELTTVFI | 7.5
NQLDSSNKSM | 17.1
NVSRVVECLT | 9.45
QIYLSDSDNI | 24.9
RTRCKYVGCT | 48.5
TQSGALEVLM | 10.6
VTTNNLLEQL | 21.6
WLRAKRKPAM | 22.5
YVHSLLYSSM | 29

Biological target: HLA-A*02:03
Experiment: as above
Conditions: source organism: Influenza A virus

Sequence | IC50 [µM]
CAAMDDFQL | 22.8
FNPMIVELA | 11.6
FVETLARSI | 6.18
GILHLILWIL | 7.7
LLLIVQALR | 8.19
TVSSFQDIL | 8.97
VLFQNWGI | 10.1

Same assay, conditions: source organism: Mammarenavirus brazilense

Sequence | IC50 [µM]
LNISGYNYSL | 49
RSASGGVYL | 14.5

Same assay, conditions: source organism: Mammarenavirus choriomeningitidis

Sequence | IC50 [µM]
LSYSQTMLL | 11.3
SCDDVVFGI | 50.5

Same assay, conditions: source organism: Mammarenavirus guanaritoense

Sequence | IC50 [µM]
LCFWSAIFFT | 30.3
MNNVVQALT | 21.5

Same assay, conditions: source organism: Mammarenavirus machupoense

Sequence | IC50 [µM]
KSYFTNAAL | 7.18
LNIALVAVSL | 12.5
LNKSDSSWAV | 5.25
SSWAVHWFS | ≥ 70

Same assay, conditions: source organism: SARS-CoV1

Sequence | IC50 [µM]
IMLIIFWFSL | 14.9
MLIIFWFSL | 13

Same assay, conditions: source organism: Vaccinia virus WR

Sequence | IC50 [µM]
ALWDSNFFT | 28.2
CTSEIQNVT | 5.19
DAEFVMCLEA | 7.3
DIYDAVRAFL | 6.95
DTCLLAISA | 6.45
DTSNNIAEYI | 9.22
DVQRTRCKYV | 6.46
EIARIENEM | 47.9
ELPYVGDTSM | 14.2
GARVIWMDA | 9.14
IAGIILLIL | 52.9
IASKINNNRI | 18.5
IISTDQDTM | 33.2
KISVEKIKQT | 8.96
LISILMIFI | 5
NIEIMDKEQL | 15.5
NIVTDLENRL | 17.6

Sequence | IC50 [µM]
NLEELTTVFI | 6.5
NQLDSSNKSM | 30
NVSRVVECLT | 14.3
PIPMSRLFM | 9.13
QIYLSDSDNI | 19.6
RAGYSIVEL | 5.39
RTRCKYVGCT | 12.3
TQSGALEVLM | 15.4
TVGMLIYSM | 6.09
VLTSVDIET | 11.3
VMDTLNGIMM | 5.16
VQLSNNKYVL | 9.49
VQTLISLNSM | 5.82
VTTNNLLEQL | 17.9
VVYHDDDNTT | 12.6
WLRAKRKPAM | 20.1
YVHSLLYSSM | 6.71

Biological target: HLA-A*02:06
Experiment: as above
Conditions: source organism: Influenza A virus

Sequence | IC50 [µM]
FNPMIVELA | 12.6
TVSSFQDIL | 13.8

Same assay, conditions: source organism: Mammarenavirus brazilense

Sequence | IC50 [µM]
RSASGGVYL | 13.6

Same assay, conditions: source organism: Mammarenavirus choriomeningitidis

Sequence | IC50 [µM]
SCDDVVFGI | 14.6

Same assay, conditions: source organism: Mammarenavirus guanaritoense

Sequence | IC50 [µM]
LCFWSAIFFT | 34.6
MNNVVQALT | ≥ 70

Same assay, conditions: source organism: Mammarenavirus machupoense

Sequence | IC50 [µM]
KSYFTNAAL | 12
LNIALVAVSL | 13.2
SSWAVHWFS | 46.8

Same assay, conditions: source organism: SARS-CoV1

Sequence | IC50 [µM]
IMLIIFWFSL | 16.8

Same assay, conditions: source organism: Vaccinia virus WR

Sequence | IC50 [µM]
ALWDSNFFT | 23.1
CTSEIQNVT | 10.2
DAEFVMCLEA | 12.7
DIYDAVRAFL | 12.1
DTCLLAISA | 25.2
DTSNNIAEYI | 45.7
DVQRTRCKYV | 9.51
EIARIENEM | ≥ 70
ELPYVGDTSM | 29.8
IAGIILLIL | ≥ 70
IASKINNNRI | 9.42
KISVEKIKQT | 21
LISILMIFI | 7.03
NIEIMDKEQL | 5.65
NLEELTTVFI | 12.3
NVSRVVECLT | 10
PIPMSRLFM | 31.4
QIYLSDSDNI | 14.9
RAGYSIVEL | 5.07
RTRCKYVGCT | 11.6
TVGMLIYSM | 9.18
VTTNNLLEQL | 5.91
WLRAKRKPAM | 11.9
